Laboratory results taken from the Immune Epitope Database (IEDB).

The sequences below were run against HLA-A*33:03 (assay: IEDB peptide-MHC binding, purified MHC/competitive/fluorescence; filed as Kd, often an IC50 or EC50 that approximates it; ≥ and ≤ were set here for values at or beyond the usual limits of such assays). Conditions: source organism: Homo sapiens.
For DAQRLHYYR, the Kd was 1.37 nM.
Sequence DIYNHRFHR has a Kd of 2.4 nM.
Sequence DTYLHRVAR has a Kd of 2.19 nM.
With DVFPGPSFR the Kd was 2.18 nM.
EFFIPRVGR showed a Kd of 1.47 nM.
EFFSINAQR was tested, and the Kd was 0.28 nM.
Work on EFQDFTVPR yielded a Kd of 1.78 nM.
EFVDLYVPR gave a Kd of 5.11 nM.
ELFDFLHAR was tested, and the Kd was 1.68 nM.
For ETFPQRHMR, the Kd was 3.14 nM.
For ETHFPFAIR, the Kd was 2.11 nM.
In the case of ETMPSPYGR, the Kd is reported as 3.1 nM.
Sequence ETVERIFRR has a Kd of 1.77 nM.
Sequence ETYKYLYGR has a Kd of 1.79 nM.
ETYLHRIGR gave a Kd of 1.69 nM.
For EVASVWVER, the Kd was 11.5 nM.
EVFEYIIFR gave a Kd of 4.69 nM.
EVINDYHFR showed a Kd of 5.33 nM.
EVKESPFFR was tested, and the Kd was 3.63 nM.
For EVYDIAFSR, the Kd was 1.29 nM.
Sequence FTWNINHAR has a Kd of 3.22 nM.
FVFDRPVHR gave a Kd of 0.95 nM.
MLYGLIHAR was tested, and the Kd was 3.45 nM.
With MTILQTYFR the Kd was 3.19 nM.
NTLQLHRYR gave a Kd of 3.4 nM.
Sequence NTNDFVTLR has a Kd of 4.87 nM.
Work on QLYPRNFLR yielded a Kd of 3.85 nM.
Work on STARHLYLR yielded a Kd of 0.92 nM.
Work on SYIDRLAPR yielded a Kd of 1.43 nM.
With TTTEHRFFR the Kd was 1.99 nM.
VVAAVRWRR gave a Kd of 3.64 nM.
With YVFPKPFNR the Kd was 1.43 nM.
Sequence YVQRFHYSR has a Kd of 1.37 nM.
